Among the data in article PMC11387744 (Communications Biology, 2024) are Kd values, retold here.

B1: BCOR^N1591/PCGF1^RAWUL dimer (complex)
chain 1: DDDASGTWDFYGSSVCEPDDESGYDVLANPPGPEDQDDDDDAYSDVFEFEFSETPLLPCYNIQVSVAQGPRNWLLLSDVLKKLKMSSRIFRCNFPNVEIVTIAEAEFYRQVSASLLFSCSKDLEAFNPESKELLDLVEFTNEIQTLLGSSVEWLHPSDLASDNYW
chain 2: LPFSSFDHSKAHYYRYDEQLNLCLERLSSGKDKNKSVLQNKYVRCSVRAEVRHLRRVLCHRLMLNPQHVQLLFDNEVLPDHMTMKQIWLSRWFGKPSPLLLQYSVK
B2: BCOR^N1607/PCGF1^RAWUL dimer (complex)
chain 1: EPDDESGYDVLANPPGPEDQDDDDDAYSDVFEFEFSETPLLPCYNIQVSVAQGPRNWLLLSDVLKKLKMSSRIFRCNFPNVEIVTIAEAEFYRQVSASLLFSCSKDLEAFNPESKELLDLVEFTNEIQTLLGSSVEWLHPSDLASDNYW
chain 2: LPFSSFDHSKAHYYRYDEQLNLCLERLSSGKDKNKSVLQNKYVRCSVRAEVRHLRRVLCHRLMLNPQHVQLLFDNEVLPDHMTMKQIWLSRWFGKPSPLLLQYSVK
B3: BCOR^N1594/PCGF1^RAWUL dimer (complex)
chain 1: ASGTWDFYGSSVCEPDDESGYDVLANPPGPEDQDDDDDAYSDVFEFEFSETPLLPCYNIQVSVAQGPRNWLLLSDVLKKLKMSSRIFRCNFPNVEIVTIAEAEFYRQVSASLLFSCSKDLEAFNPESKELLDLVEFTNEIQTLLGSSVEWLHPSDLASDNYW
chain 2: LPFSSFDHSKAHYYRYDEQLNLCLERLSSGKDKNKSVLQNKYVRCSVRAEVRHLRRVLCHRLMLNPQHVQLLFDNEVLPDHMTMKQIWLSRWFGKPSPLLLQYSVK
B4: BCOR^N1624/PCGF1^RAWUL dimer (complex)
chain 1: EDQDDDDDAYSDVFEFEFSETPLLPCYNIQVSVAQGPRNWLLLSDVLKKLKMSSRIFRCNFPNVEIVTIAEAEFYRQVSASLLFSCSKDLEAFNPESKELLDLVEFTNEIQTLLGSSVEWLHPSDLASDNYW
chain 2: LPFSSFDHSKAHYYRYDEQLNLCLERLSSGKDKNKSVLQNKYVRCSVRAEVRHLRRVLCHRLMLNPQHVQLLFDNEVLPDHMTMKQIWLSRWFGKPSPLLLQYSVK
B5: BCOR^N1612/PCGF1^RAWUL dimer (complex)
chain 1: SGYDVLANPPGPEDQDDDDDAYSDVFEFEFSETPLLPCYNIQVSVAQGPRNWLLLSDVLKKLKMSSRIFRCNFPNVEIVTIAEAEFYRQVSASLLFSCSKDLEAFNPESKELLDLVEFTNEIQTLLGSSVEWLHPSDLASDNYW
chain 2: LPFSSFDHSKAHYYRYDEQLNLCLERLSSGKDKNKSVLQNKYVRCSVRAEVRHLRRVLCHRLMLNPQHVQLLFDNEVLPDHMTMKQIWLSRWFGKPSPLLLQYSVK
B6: BCOR^ANK-linker (residues 1461-1635) (domain or fragment, UniProt Q6W2J9 1461-1635, looked up)
chain: NAGETLLQRAARLGYEEVVLYCLENKICDVNHRDNAGYCALHEACARGWLNIVRHLLEYGADVNCSAQDGTRPLHDAVENDHLEIVRLLLSYGADPTLATYSGRTIMKMTHSELMEKFLTDYLNDLQGRNDDDASGTWDFYGSSVCEPDDESGYDVLANPPGPEDQDDDDDAYSD

The term Kd denotes the free concentration of one partner at which half of the binding sites on the other are occupied at equilibrium, for simple one-to-one binding.

The target of one experiment is T1, KDM2B^F-box-LRRs/SKP1 dimer (UniProt Q8NHM5 1059-1336; P63208 2-163). Put plainly: ITC. A general note: ITC needs no label: the signal is the heat of the interaction.
T1 sequence (Q8NHM5 1059-1336, chain 1 of 2): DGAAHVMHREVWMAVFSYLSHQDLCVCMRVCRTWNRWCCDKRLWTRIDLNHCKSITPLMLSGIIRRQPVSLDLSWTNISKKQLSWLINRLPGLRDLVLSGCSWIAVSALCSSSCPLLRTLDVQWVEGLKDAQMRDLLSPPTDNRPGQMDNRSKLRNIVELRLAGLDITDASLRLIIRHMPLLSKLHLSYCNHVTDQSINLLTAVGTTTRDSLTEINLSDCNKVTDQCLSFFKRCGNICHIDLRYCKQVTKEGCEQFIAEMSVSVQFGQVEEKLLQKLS
T1 sequence (P63208 2-163, chain 2 of 2): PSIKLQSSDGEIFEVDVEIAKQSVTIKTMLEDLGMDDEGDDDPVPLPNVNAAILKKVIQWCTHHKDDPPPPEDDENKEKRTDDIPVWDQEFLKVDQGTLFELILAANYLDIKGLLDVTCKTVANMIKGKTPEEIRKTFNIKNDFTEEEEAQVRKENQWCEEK
In turn, B1 yielded an equilibrium dissociation constant (Kd) of 240 nM. B2 showed a Kd of 270 nM. Same read-out and setting: in the case of B3 it was 250 nM.

Regarding B4, the Kd amounted to 5930 nM. Against the preceding molecule, the Kd is about 24-fold higher. The molecule B5 had a dissociation constant (Kd) of 850 nM. This Kd lies about 7-fold lower than the previous one.

The target of a further experiment is T1, KDM2B^F-box-LRRs/SKP1 dimer. Put plainly: ITC. The source holds these as a separate data set.
B6 came in with a Kd of 6350 nM. This lies in the single-digit micromolar range.
